Assays:
[1] = target: Amyloid Beta (antigen of the Amyloid Beta ELISA) (UniProt P05067 672-713, limits assumed); experiment: Amyloid Beta ELISA, antibody purified from NS0 cells
[2] = target: T1, soluble polymeric amyloid beta (UniProt P05067 672-713); experiment: ELISA on plates coated with the amyloid preparation (55 µg/ml), AP-labelled anti-mouse IgG
T1 construct: also called Oligomer; polymeric soluble amyloid
Procedure: In order to evaluate the specificity of mC2 to different stages of polymerized amyloid protein, monomeric, polymeric soluble and fibrillic amyloid, an ELISA coated with these different stages of polymeric beta-amyloid was performed (FIG. 9). Monomers were prepared according to a modified method published by (Klein, 2002), soluble polymeric amyloid beta according to (Barghorn et al., 2005), whereas fibers were performed by incubation of amyloid (Bachem, Switzerland) with a final concentration of 1 μg/μl in Tris/HCl pH 7.4 at 37° C. for 5 days followed by a centrifugation step (10,000 rpm for 5 minutes). Then amyloid polymers were coated on an ELISA plates with a final concentration of 55 μg/ml and binding affinity ELISA by using an anti-mouse IgG monoclonal antibody (Jackson) labelled with alkaline phosphate was performed.

Sequence of Amyloid Beta (antigen of the Amyloid Beta ELISA) (P05067 672-713 limits assumed): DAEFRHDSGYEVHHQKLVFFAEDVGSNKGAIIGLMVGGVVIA
T1 sequence (P05067 672-713): as the sequence (P05067 672-713 limits assumed) above

Binder | EC50 (read off the curve) [1] [ng/well] | EC50 (read off the curve) [2] [µg/mL]
C2HuVH4/HuVK2 humanized antibody (antibody, human IgG4 S228P, kappa, V domains shown, also called C2HuVHAF4 with C2HuVK2) VH: EVQLVESGGGLVQPGGSLRLSCAASGFTFSSYGMSWVRQAPGKGLELVASINSNGGSTYYPDSVKGRFTISRDNAKNSLYLQMNSLRAEDTAVYYCASGDYWGQGTTVTVSS VL: DIVMTQSPLSLPVTPGEPASISCRSSQSLVYSNGDTYLHWYLQKPGQSPQLLIYKVSNRFSGVPDRFSGSGSGTDFTLKISRVEAEDVGVYFCSQSTHVPWTFGQGTKVEIKR | ~4 | 
mouse monoclonal antibody ACI-01-Ab7C2 (antibody, V domains shown, Mouse IgG2b/kappa from hybridoma FP-12H3-C2 (DSM ACC2750); also called mC2; Mouse ACI-01-Ab-7-C2) VH: EVQLVESGGGLVQPGGSLKLSCAASGFTFSSYGMSWVRQTPDKRLELVASINSNGGSTYYPDSVKGRFTISRDNAKNTLYLQMSSLKSEDTAMYYCASGDYWGQGSTLTVSS VL: DVVMTQTPLSLPVSLGDQASISCRSSQSLVYSNGDTYLHWYLQKPGQSPKLLIYKVSNRFSGVPDRFSGSGSGTDFTLKISRVEAEDLGVYFCSQSTHVPWTFGGGTKLEIK |  | ~0.4

Source: patent publication US20100080800A1 (AC IMMUNE S A, published 2010)
